In assay [1] the target is T1, Anti-Glut4 VHH (alpaca).
T1 construct: alpaca VHH; selected by phage display from an alpaca immunized with Adhiron-Glut4; also called the VHH; anti-Glut4 VHH antibody; source: E. coli BL21(DE3), purified (Ni-NTA, SEC)
The assay can be described thus: ITC; 10 uM VHH in the cell; 100 uM fusion protein (or scaffold protein Adhiron-WT) titrated, 20 injections of 2 ul at intervals of 120 s; PBS pH 7.4, 25 °C; n = 3, mean ± s.e.m. The settings on record: both partners purified.

The target of assay [2] is T2, full-length Glut1 as a recombinant protein (Homo sapiens, UniProt P11166).
T2 construct: glucose transporter 1 (Glut1), human, full length; also called glucose transporter 1; full-length Glut1 in micelles; source: High Five insect cells (baculovirus), purified (solubilised with n-dodecyl-β-D-maltopyranoside, Ni-NTA, SEC); not shown: His10, C-terminal, kept
The assay can be described thus: SPR; Biacore 8K; His-tagged Glut1 captured by anti-His antibodies on a CM5 chip; VHH injected at 123 nM-10 μM, single-cycle kinetics; 25 mM Mes-NaOH pH 6.0, 150 mM NaCl, 5% glycerol, 0.05% n-dodecyl-β-D-maltoside, 25 °C. The following applies: both partners purified.

The target of assay [3] is T3, Fc-VHH antibody of VHH4 (alpaca).
T3 construct: as the VHH of m6; form used for flow cytometry; source: ExpiCHO, transfected, purified from the supernatant (rProtein A Sepharose, SEC); not shown: Fc (Fc region of trastuzumab), C-terminal, kept
As to the kind of experiment: flow cytometry on cells; Expi293 cells transfected with Glut1 against empty vector; 1 μM Fc-VHH with Alexa Fluor 488 anti-human IgG, on ice 60 min. The settings on record: one partner purified.

For assay [4], the target named is T4, Fc-VHH antibody of VHH5 (alpaca).
T4 construct: as the VHH of m7; form used for flow cytometry; source: ExpiCHO, transfected, purified from the supernatant (rProtein A Sepharose, SEC); not shown: Fc (Fc region of trastuzumab), C-terminal, kept
The description is as above. The settings on record: one partner purified.

The target of assay [5] is T3, Fc-VHH antibody of VHH4. The assay can be described thus: flow cytometry on cells; HCT116 cells with endogenous Glut1; 1 μM Fc-VHH with Alexa Fluor 488 anti-human IgG, on ice 60 min. The following applies: one partner purified.
The target of assay [6] is T4, Fc-VHH antibody of VHH5. The description is as above. The settings on record: one partner purified.

T1 sequence (VHH, as listed by the source): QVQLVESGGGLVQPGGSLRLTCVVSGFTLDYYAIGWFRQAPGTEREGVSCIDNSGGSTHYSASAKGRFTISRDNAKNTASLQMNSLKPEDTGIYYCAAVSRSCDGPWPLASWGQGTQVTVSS

B1: Adhiron-Glut4 (other)
chain: ENSLEIEELARFAVDEHNKKENALLEFVRVVKAKEQGGGGSAPQKVIEQSYNETWLGRQGPEGPSSIPPGTLTTLWALSVGGGGSTMYYLTLEAKDGGKKKLYEAKVWVKPWENFKELQEFKPV
modifications: Limits of the Glut4 graft are not printed: 47-85 is the homologue of Glut1 35-69 (two extracellular helices). Graft site is assumed to be as in Adhiron-Glut1: loop 47VVAG50 (entity 37-40, offset 10) …
As to B1, in assay [1], the Kd amounted to 3.67 nM and the “stoichiometry N” value came out at 1.02.

B2: VHH4 with a FLAG tag (VHH)
VHH: EVQLVESGGGLVQPGGSLRLSCAASGFTLDRYAIGWFRQAPGKEREGISCISSGSGSRVYADSVKGRFTVSRDNVENTVSLEMNSLKPEDTAVYYCAAEADYYCSGYPIYRKFGSWGQGTQVTVSS
notes: as the VHH of m6; Form prepared for SPR; source: E. coli BL21(DE3), purified (DDDDK-tagged Protein Purification Gel, SEC)
In the case of B2, the binding result in assay [2] was “binds”.

B3: Glut1 overexpressed on Expi293 cells (natural protein, human, UniProt P11166 1-492, looked up)
chain: MEPSSKKLTGRLMLAVGGAVLGSLQFGYNTGVINAPQKVIEEFYNQTWVHRYGESILPTTLTTLWSLSVAIFSVGGMIGSFSVGLFVNRFGRRNSMLMMNLLAFVSAVLMGFSKLGKSFEMLILGRFIIGVYCGLTTGFVPMYVGEVSPTALRGALGTLHQLGIVVGILIAQVFGLDSIMGNKDLWPLLLSIIFIPALLQCIVLPFCPESPRFLLINRNEENRAKSVLKKLRGTADVTHDLQEMKEESRQMMREKKVTILELFRSPAYRQPILIAVVLQLSQQLSGINAVFYYSTSIFEKAGVQQPVYATIGSGIVNTAFTVVSLFVVERAGRRTLHLIGLAGMAGCAILMTIALALLEQLPWMSYLSIVAIFGFVAFFEVGPGPIPWFIVAELFSQGPRPAAIAVAGFSNWTSNFIVGMCFQYVEQLCGPYVFIIFTVLLVLFFIFTYFKVPETKGRTFDEIASGFRQGGASQSDKTPEELFHPLGADSQV
notes: glucose transporter 1 (Glut1), human, on the surface of transfected Expi293 cells; also called Glut1 on the cell membrane; overexpressed Glut1; source: Expi293, transfected (pcDNA 3.4), on cells
Turning to B3, the binding result in assay [3] and in assay [4] was “binds” each time.

B4: endogenous Glut1 on HCT116 cells (natural protein, human (endogenous in HCT116), UniProt P11166 1-492, looked up)
chain: B3 chain
notes: glucose transporter 1 (Glut1), endogenous on the surface of HCT116 colon cancer cells; source: endogenous, on HCT116 cells
For B4, the binding result in assay [5] and in assay [6] was “binds” in each case.

B5: VHH5 with a FLAG tag (VHH)
VHH: ELQLVESGGGLVQPGGSLRLSCAVSGVAFEDYAIGWFRQAPGKEREGVSCISSGSGSRIYTDSVKGRFTVSRDNPKNTVDLQMDSLKPEDTAVYYCAAERDYYCSGYPTYRAFSSWGEGTQVTVSS
notes: as the VHH of m7; Form prepared for SPR; source: E. coli BL21(DE3), purified (DDDDK-tagged Protein Purification Gel, SEC)
Turning to B5, in assay [2], the binding result was “binds”.

These data come from PMC10862009, “Generation of antibodies to an extracellular region of the transporters Glut1/Glut4 by immunization with a designed antigen” (The Journal of Biological Chemistry, 2024).
